Reference: paper PMC8065144
Several values for one entry are separate records, joined by “and”; a condition that tells them apart may be missing. Equal entries are not always repeated.

Target: HA-tagged Glial Lazarillo (GLaz-HA) (Drosophila)
Assay: affinity purification on anti-HA beads and Western blot (bands of oligomers); GLaz-HA from larval brain extract concentrated on anti-HA beads, detected with anti-HA; the tetramers and dimers are destabilized into monomers by heat treatment or the reducing agent DTT

stoichiometry N: 4 and 2
Substance: HA-tagged Glial Lazarillo (GLaz-HA) (ligand)
